Tests used:
[1] = target: GST-pre-S1 (1st to 56th amino acids) protein (hepatitis B virus) [GST: P08515]; assay: BLI (Octet Red), antibody captured on anti-human Fc tip, GST-pre-S1 in solution
[2] = target: GST-pre-S1 (1st to 56th amino acids) protein (hepatitis B virus) [GST: P08515]; assay: competitive ELISA and BLI (Octet Red)

Chain of GST-pre-S1 (1st to 56th amino acids) protein (hepatitis B virus) [GST: P08515] (P08515 whole entry): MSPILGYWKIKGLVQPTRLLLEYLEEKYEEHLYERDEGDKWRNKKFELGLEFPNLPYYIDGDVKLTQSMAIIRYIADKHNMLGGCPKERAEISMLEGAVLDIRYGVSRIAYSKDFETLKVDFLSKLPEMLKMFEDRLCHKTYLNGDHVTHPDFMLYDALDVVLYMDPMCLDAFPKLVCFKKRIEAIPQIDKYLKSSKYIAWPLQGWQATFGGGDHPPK

B1: humanized antibody HzKR127-3.1 (antibody, V domains shown)
VH: QVQLQQSGAEVKKPGASVKVSCKASGYTFTSSWMNWVRQAPGQGLEWMGRIYPGDGDTNYAQKFQGRVTMTADKSTSTVYMELSSLRSEDTAVYYCAREYAEAYWGQGTLVTVSS
VL: DIVMTQTPLSLSVTPGQPASISCKSSQSLLYSNGKTYLNWLLQKPGQPPQRLIYLVSNRDSGVPDRFSGSGSGTDFTLKISRVEAEDVGVYYCVQGTHFPQTFGGGTKVEIKR
**Q.** B1 was tested. Which Kd [1] did it give?
**A.** 0.813 nM

**Q.** What about the koff [1] of the same binder?
**A.** 4.13e-05 s⁻¹

**Q.** What about the kon [1] of the same binder?
**A.** 50800 M⁻¹ s⁻¹

**Q.** What about the fold higher affinity than HzKR127-3 [2] of the same binder?
**A.** 4.9 fold
